Source: patent publication US20260115256A1 (HANGZHOU SCIWIND BIOSCIENCES, published 2026)
*1 amine or outer side, *2 acyl side, *3 side chain or, on linkers, in order; H or OH if unused. Bridges are numbered along the chain shown (N, C = ends). Where no end group is shown, it is not given here. Side-chain parts run from the residue outwards. [ ]: non-standard residue; d: D form. The star is where a group is joined. C20 diacid = O=C(O)CCCCCCCCCCCCCCCCCCC(=O)*; C18 diacid = O=C(O)CCCCCCCCCCCCCCCCC(=O)*; γGlu = O=C(O)[C@H](CCC(=O)[*:2])N[*:1]; Hyp = O=C(O)[C@@H]1C[C@@H](O)CN1; hArg = N=C(N)NCCCC[C@H](N)C(=O)O; Orn = NCCC[C@H](N)C(=O)O; Dab = NCC[C@H](N)C(=O)O; Dap = NC[C@H](N)C(=O)O; AEEA = NCCOCCOCC(=O)O

T1: human amylin receptor (AMY3) on CHO-K1/Ga15/AMY3 cells (human, UniProt P30988 25-474; O60896 24-148)
T1 sequence (looked up) 1: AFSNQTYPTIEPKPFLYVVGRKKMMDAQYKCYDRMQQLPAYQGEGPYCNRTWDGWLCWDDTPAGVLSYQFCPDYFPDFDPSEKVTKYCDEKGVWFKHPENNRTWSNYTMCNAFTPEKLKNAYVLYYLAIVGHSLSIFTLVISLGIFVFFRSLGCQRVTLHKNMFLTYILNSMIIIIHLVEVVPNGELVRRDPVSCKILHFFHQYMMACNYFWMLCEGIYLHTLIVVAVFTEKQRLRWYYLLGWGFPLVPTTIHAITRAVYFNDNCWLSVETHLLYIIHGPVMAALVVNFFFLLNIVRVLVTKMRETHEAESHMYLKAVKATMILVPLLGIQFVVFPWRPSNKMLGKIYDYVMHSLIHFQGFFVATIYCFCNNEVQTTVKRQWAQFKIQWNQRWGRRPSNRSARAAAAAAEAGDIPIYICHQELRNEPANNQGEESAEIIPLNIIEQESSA
T1 sequence (looked up) 2: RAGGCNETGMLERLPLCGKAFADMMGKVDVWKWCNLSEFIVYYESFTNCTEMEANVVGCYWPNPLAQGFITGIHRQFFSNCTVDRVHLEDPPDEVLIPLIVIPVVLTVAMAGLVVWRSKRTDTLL


Target: T1, human amylin receptor (AMY3) on …
Assay: cell-based or functional assay

Row | Binder | EC50, CRE-luciferase assay
1 | [Dap]CNTATCATQRLADFLRHSSNNLK([γGlu-C20 diacid])PILPPTNVGSNT[Hyp]-NH2 (disulfide 2-7 (inferred)) [PD073] | 0.063 nM
2 | {C20 diacid-γGlu}-KCNTATCATQRLADFLRHSSNNLKPILPPTNVGSNT[Hyp]-NH2 (disulfide 2-7 (inferred)) [PD071] | 0.028 nM
3 | RCNTATCATQRLADFLRHSK([AEEA-AEEA-γGlu-C20 diacid])NNLGPILPPTNVGSNT[Hyp]-NH2 (disulfide 2-7 (inferred)) [PD095] | 0.047 nM
4 | [Dab]CNTATCATQRLADFLRHSSNNLK([γGlu-C20 diacid])PILPPTNVGSNT[Hyp]-NH2 (disulfide 2-7 (inferred)) [PD074] | 0.066 nM
5 | RCNTATCATQRLADFLRHSSNNK([AEEA-AEEA-γGlu-C20 diacid])GPILPPTNVGSNT[Hyp]-NH2 (disulfide 2-7 (inferred)) [PD083] | 0.037 nM
6 | RCNTATCATQRLADFLRHK([γGlu-C18 diacid])SNNLGPILPPTNVGSNT[Hyp]-NH2 (disulfide 2-7 (inferred)) [PD100] | 0.06 nM
7 | RCNTATCATQRLADFLRHSK([γGlu-C18 diacid])NNLGPILPPTNVGSNT[Hyp]-NH2 (disulfide 2-7 (inferred)) [PD096] | 0.042 nM
8 | RCNTATCATQRLADFLRHSSK([γGlu-C20 diacid])NLGPILPPTNVGSNT[Hyp]-NH2 (disulfide 2-7 (inferred)) [PD090] | 0.031 nM
9 | RCNTATCATQRLADFLRHSK([γGlu-C20 diacid])NNLGPILPPTNVGSNT[Hyp]-NH2 (disulfide 2-7 (inferred)) [PD094] | 0.034 nM
10 | RCNTATCATQRLAEFLRHSSK([γGlu-C20 diacid])NLGPILPPTNVGSNTP-NH2 (disulfide 2-7 (inferred)) [PD006] | 0.129 nM
11 | [Orn]CNTATCATQRLADFLRHSSNNLK([γGlu-C20 diacid])PILPPTNVGSNT[Hyp]-NH2 (disulfide 2-7 (inferred)) [PD075] | 0.048 nM
12 | RCNTATCATQRLADFLRHSSNNK([AEEA-AEEA-γGlu-C18 diacid])GPILPPTNVGSNT[Hyp]-NH2 (disulfide 2-7 (inferred)) [PD085] | 0.005 nM
13 | ECNTATCATQRLADFLRHSSNNLK([γGlu-C20 diacid])PILPPTNVGSNT[Hyp]-NH2 (disulfide 2-7 (inferred)) [PD080] | 0.11 nM
14 | RCNTATCATQRLADFLRHSSNK([AEEA-AEEA-γGlu-C20 diacid])LGPILPPTNVGSNT[Hyp]-NH2 (disulfide 2-7 (inferred)) [PD087] | 0.032 nM
15 | RCNTATCATQRLADFLRHK([AEEA-AEEA-γGlu-C18 diacid])SNNLGPILPPTNVGSNT[Hyp]-NH2 (disulfide 2-7 (inferred)) [PD101] | 0.012 nM
16 | RCNTATCATQRLADFLRHSK([AEEA-AEEA-γGlu-C18 diacid])NNLGPILPPTNVGSNT[Hyp]-NH2 (disulfide 2-7 (inferred)) [PD097] | 0.014 nM
17 | RCNTATCATQRLADFLRHK([AEEA-AEEA-γGlu-C20 diacid])SNNLGPILPPTNVGSNT[Hyp]-NH2 (disulfide 2-7 (inferred)) [PD099] | 0.033 nM
18 | RCNTATCATQRLAEFLRHSSNK([γGlu-C20 diacid])LGPILPPTNVGSNTP-NH2 (disulfide 2-7 (inferred)) [PD007] | 0.205 nM
19 | RCNTATCATQRLADFLRHSSK([AEEA-AEEA-γGlu-C20 diacid])NLGPILPPTNVGSNT[Hyp]-NH2 (disulfide 2-7 (inferred)) [PD091] | 0.03 nM
20 | RCNTATCATQRLADFLRHSSNK([γGlu-C18 diacid])LGPILPPTNVGSNT[Hyp]-NH2 (disulfide 2-7 (inferred)) [PD088] | 0.013 nM

The remaining lines, values ahead:

Row | EC50, CRE-luciferase assay | Binder
21 | 0.034 nM | [hArg]CNTATCATQRLADFLRHSSNNLK([γGlu-C20 diacid])PILPPTNVGSNT[Hyp]-NH2 (disulfide 2-7 (inferred)) [PD077]
22 | 0.04 nM | KCNTATCATQRLADFLRHSSNNLK([γGlu-C20 diacid])PILPPTNVGSNT[Hyp]-NH2 (disulfide 2-7 (inferred)) [PD076]
23 | 0.018 nM | RCNTATCATQRLADFLRHSSNK([AEEA-AEEA-γGlu-C18 diacid])LGPILPPTNVGSNT[Hyp]-NH2 (disulfide 2-7 (inferred)) [PD089]
24 | 0.038 nM | RCNTATCATQRLADFLRHSSNNK([γGlu-C20 diacid])GPILPPTNVGSNT[Hyp]-NH2 (disulfide 2-7 (inferred)) [PD082]
25 | 0.031 nM | RCNTATCATQRLADFLRHSSNNLK([AEEA-AEEA-γGlu-C20 diacid])PILPPTNVGSNT[Hyp]-NH2 (disulfide 2-7 (inferred)) [PD081]
26 | 0.033 nM | RCNTATCATQRLADFLRHSSNK([γGlu-C20 diacid])LGPILPPTNVGSNT[Hyp]-NH2 (disulfide 2-7 (inferred)) [PD086]
27 | 0.035 nM | HCNTATCATQRLADFLRHSSNNLK([γGlu-C20 diacid])PILPPTNVGSNT[Hyp]-NH2 (disulfide 2-7 (inferred)) [PD078]
28 | 0.019 nM | RCNTATCATQRLADFLRHSSK([AEEA-AEEA-γGlu-C18 diacid])NLGPILPPTNVGSNT[Hyp]-NH2 (disulfide 2-7 (inferred)) [PD093]
29 | 0.016 nM | RCNTATCATQRLADFLRHSSK([γGlu-C18 diacid])NLGPILPPTNVGSNT[Hyp]-NH2 (disulfide 2-7 (inferred)) [PD092]
30 | 0.033 nM | RCNTATCATQRLADFLRHSSNNLGK([γGlu-C20 diacid])ILPPTNVGSNT[Hyp]-NH2 (disulfide 2-7 (inferred)) [PD102]
31 | 0.077 nM | RCNTATCATQRLADFLRHK([γGlu-C20 diacid])SNNLGPILPPTNVGSNT[Hyp]-NH2 (disulfide 2-7 (inferred)) [PD098]
32 | 0.281 nM | RCNTATCATQRLAEFLRHSSNNK([γGlu-C20 diacid])GPILPPTNVGSNTP-NH2 (disulfide 2-7 (inferred)) [PD008]
33 | 0.027 nM | K([γGlu-C20 diacid])CNTATCATQRLADFLRHSSNNLKPILPPTNVGSNT[Hyp]-NH2 (disulfide 2-7 (inferred)) [PD072]
34 | 0.131 nM | DCNTATCATQRLADFLRHSSNNLK([γGlu-C20 diacid])PILPPTNVGSNT[Hyp]-NH2 (disulfide 2-7 (inferred)) [PD079]
35 | 0.008 nM | RCNTATCATQRLADFLRHSSNNK([γGlu-C18 diacid])GPILPPTNVGSNT[Hyp]-NH2 (disulfide 2-7 (inferred)) [PD084]
